Data on five molecules can be found in US20200181263A1 (NUMAB THERAPEUTICS, published 2020).

For test [1], the target named is human IL23R IL12Rbeta 1 heterodimer on CHO-K1 cells (human, UniProt Q5VWK5 24-629; P42701 24-662). Put plainly: cell-based or functional assay.
A further test concerns the target T1, human IL-23 receptor ECD (human, UniProt Q5VWK5 24-355).
T1 construct: extracellular domain
T1 sequence (looked up): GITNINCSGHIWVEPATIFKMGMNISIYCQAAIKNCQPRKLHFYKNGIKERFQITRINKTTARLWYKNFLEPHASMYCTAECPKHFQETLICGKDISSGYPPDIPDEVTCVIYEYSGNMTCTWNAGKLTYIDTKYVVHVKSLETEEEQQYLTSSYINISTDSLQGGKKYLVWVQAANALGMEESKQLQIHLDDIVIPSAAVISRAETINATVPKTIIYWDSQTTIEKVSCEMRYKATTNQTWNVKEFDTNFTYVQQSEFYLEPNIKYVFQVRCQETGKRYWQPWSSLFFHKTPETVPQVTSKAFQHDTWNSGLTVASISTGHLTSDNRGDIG
The test can be described thus: SPR, target immobilised by amine coupling, binder as analyte.

Another test deals with T2, human serum albumin (human, UniProt P02768 25-609).
T2 construct: also called HSA
The test is described as above.

For another test, the target named is T3, cyno CD3 (cyno, UniProt Q95LI5 22-117).
T3 sequence (looked up): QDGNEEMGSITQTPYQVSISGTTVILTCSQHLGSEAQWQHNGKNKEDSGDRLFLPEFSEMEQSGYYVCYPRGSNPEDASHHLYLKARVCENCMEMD
The test is described as above.

Test [2] deals with T4, human CD3 gamma-epsilon single-chain (human, UniProt P09693 23-103; P07766 23-118).
T4 construct: Recombinant protein immobilised on the SPR chip
Described as above.

B1: PRO733 (other)
chain 1: DIQMTQSPSSLSASVGDRVTITCQASENIYSFLAWYQQKPGKAPKLLIYSASKLAAGVPSRFSGSGSGTDFTLTISSLQPEDFATYYCQQTNRYSNPDIYNVFGTGTKVTVLGGGGGSGGGGSGGGGSGGGGSEVQLVESGGGLVQPGGSLRLSCAASGIDFNSNYYMCWVRQAPGKGLEWIGCIYVGSHVNTYYANWAKGRFTISRDNSKNTVYLQMNSLRAEDTAVYYCATSGSSVLYFKFWGQGTLVTVSSGGGGSGGGGSDIQMTQSPSSLSASVGDRVTITCQSSESVYNNKRLSWYQQKPGKAPKLLIYTASSLASGVPSRFSGSGSGTDFTLTISSLQPEDFATYYCQGEFTCSNADCFTFGCGTKVTVLGSGGGGSGGGGSDIQMTQSPSSLSASVGDRVTITCQSSESVYSNNQLSWYQQKPGQPPKLLIYDASDLASGVPSRFSGSGSGTDFTLTISSLQPEDFATYYCAGGFSSSSDTAFGGGTKLTVLG
chain 2: DIQMTQSPSSLSASVGDRVTITCQASENIYSFLAWYQQKPGKAPKLLIYSASKLAAGVPSRFSGSGSGTDFTLTISSLQPEDFATYYCQQTNRYSNPDIYNVFGTGTKVTVLGGGGGSGGGGSGGGGSGGGGSEVQLVESGGGLVQPGGSLRLSCAASGIDFNSNYYMCWVRQAPGKGLEWIGCIYVGSHVNTYYANWAKGRFTISRDNSKNTVYLQMNSLRAEDTAVYYCATSGSSVLYFKFWGQGTLVTVSSGGGGSGGGGSEVQLVESGGGLVQPGGSLRLSCAASGFPLSSYAMIWVRQAPGKCLEWIGMILRAGNIYYASWVKGRFTISRDNSKNTVYLQMNSLRAEDTAVYYCARRHYNREGYPIGIGDLWGQGTLVTVSSSGGGGSGGGGSEVQLVESGGGLVQPGGSLRLSCAASGFSLSSNAMGWVRQAPGKGLEYIGIISVGGFTYYASWAKGRFTISRDNSKNTVYLQMNSLRAEDTATYFCARDRHGGDSSGAFYLWGQGTLVTVSS
notes: Hetero-dimeric MATCH, parallel; diS in anti-CD3 domain, 11 aa GS-linker, alternative anti-CD3
Turning to B1, the “NFAT assay EC50 (T-cell activation, 5 h)” value in test [1] stood at 0.152 nM. Also, the Kd turned out to be 0.0366 nM with human IL-23 receptor ECD, 0.495 nM with human serum albumin, 47.7 nM in the test with cyno CD3 and 26.5 nM in test [2].

B2: PRO736 (other)
chain 1: DIQMTQSPSSLSASVGDRVTITCQASENIYSFLAWYQQKPGKAPKLLIYSASKLAAGVPSRFSGSGSGTDFTLTISSLQPEDFATYYCQQTNRYSNPDIYNVFGTGTKVTVLGGGGGSGGGGSGGGGSGGGGSEVQLVESGGGLVQPGGSLRLSCAASGIDFNSNYYMCWVRQAPGKGLEWIGCIYVGSHVNTYYANWAKGRFTISRDNSKNTVYLQMNSLRAEDTAVYYCATSGSSVLYFKFWGQGTLVTVSSGGGGSGGGGSDIQMTQSPSSLSASVGDRVTITCQSSQSVFSNNYLAWFQQKPGQSPKRLIYSASTLASGVPSRFSGSGSGTDFTLTISSLQPEDFATYYCLGSYACSSADCYVFGCGTKVTVLGGGGGSGGGGSGGGGSDIQMTQSPSSLSASVGDRVTITCQSSESVYSNNQLSWYQQKPGQPPKLLIYDASDLASGVPSRFSGSGSGTDFTLTISSLQPEDFATYYCAGGFSSSSDTAFGGGTKLTVLG
chain 2: DIQMTQSPSSLSASVGDRVTITCQASENIYSFLAWYQQKPGKAPKLLIYSASKLAAGVPSRFSGSGSGTDFTLTISSLQPEDFATYYCQQTNRYSNPDIYNVFGTGTKVTVLGGGGGSGGGGSGGGGSGGGGSEVQLVESGGGLVQPGGSLRLSCAASGIDFNSNYYMCWVRQAPGKGLEWIGCIYVGSHVNTYYANWAKGRFTISRDNSKNTVYLQMNSLRAEDTAVYYCATSGSSVLYFKFWGQGTLVTVSSGGGGSGGGGSEVQLVESGGGLVQPGGSLRLSCAASGFSLSSYDMSWVRQAPGKCLAWIGASYASGPTYYASWAKGRFTISRDNSKNTVYLQMNSLRAEDTATYFCARGGWTGTSHSNIWGQGTLVTVSSGGGGSGGGGSGGGGSEVQLVESGGGLVQPGGSLRLSCAASGFSLSSNAMGWVRQAPGKGLEYIGIISVGGFTYYASWAKGRFTISRDNSKNTVYLQMNSLRAEDTATYFCARDRHGGDSSGAFYLWGQGTLVTVSS
notes: Hetero-dimeric MATCH, parallel; diS in anti-CD3 domain, 15 aa GS-linker
As for B2, the Kd with human IL-23 receptor ECD was determined as 0.0482 nM; with human serum albumin, 0.635 nM; with cyno CD3 it was 8.37 nM; in test [2] it was 11.1 nM.

B3: PRO747 (other)
chain 1: DIQMTQSPSSLSASVGDRVTITCQASENIYSFLAWYQQKPGKAPKLLIYSASKLAAGVPSRFSGSGSGTDFTLTISSLQPEDFATYYCQQTNRYSNPDIYNVFGTGTKVTVLGGGGGSGGGGSGGGGSGGGGSEVQLVESGGGLVQPGGSLRLSCAASGIDFNSNYYMCWVRQAPGKGLEWIGCIYVGSHVNTYYANWAKGRFTISRDNSKNTVYLQMNSLRAEDTAVYYCATSGSSVLYFKFWGQGTLVTVSSGGGGSGGGGSDIQMTQSPSSLSASVGDRVTITCQSSQSVFSNNYLAWFQQKPGQSPKRLIYSASTLASGVPSRFSGSGSGTDFTLTISSLQPEDFATYYCLGSYACSSADCYVFGCGTKVTVLGAEAAAKEAAAKADIQMTQSPSSLSASVGDRVTITCQSSESVYSNNQLSWYQQKPGQPPKLLIYDASDLASGVPSRFSGSGSGTDFTLTISSLQPEDFATYYCAGGFSSSSDTAFGGGTKLTVLG
chain 2: DIQMTQSPSSLSASVGDRVTITCQASENIYSFLAWYQQKPGKAPKLLIYSASKLAAGVPSRFSGSGSGTDFTLTISSLQPEDFATYYCQQTNRYSNPDIYNVFGTGTKVTVLGGGGGSGGGGSGGGGSGGGGSEVQLVESGGGLVQPGGSLRLSCAASGIDFNSNYYMCWVRQAPGKGLEWIGCIYVGSHVNTYYANWAKGRFTISRDNSKNTVYLQMNSLRAEDTAVYYCATSGSSVLYFKFWGQGTLVTVSSGGGGSGGGGSEVQLVESGGGLVQPGGSLRLSCAASGFSLSSNAMGWVRQAPGKGLEYIGIISVGGFTYYASWAKGRFTISRDNSKNTVYLQMNSLRAEDTATYFCARDRHGGDSSGAFYLWGQGTLVTVSSAEAAAKEAAAKAEVQLVESGGGLVQPGGSLRLSCAASGFSLSSYDMSWVRQAPGKCLAWIGASYASGPTYYASWAKGRFTISRDNSKNTVYLQMNSLRAEDTATYFCARGGWTGTSHSNIWGQGTLVTVSS
notes: Hetero-dimeric MATCH, anti-parallel; diS in anti-CD3 domain, helical linker
Regarding B3, the “NFAT assay EC50 (T-cell activation, 5 h)” value in test [1] is 1.45 nM. In addition, the Kd with human IL-23 receptor ECD came out at 0.0383 nM; with human serum albumin, 0.325 nM; with cyno CD3 it was 6.64 nM; in test [2], 8.3 nM.

B4: PRO741 (other)
chain 1: DIQMTQSPSSLSASVGDRVTITCQASENIYSFLAWYQQKPGKAPKLLIYSASKLAAGVPSRFSGSGSGTDFTLTISSLQPEDFATYYCQQTNRYSNPDIYNVFGTGTKVTVLGGGGGSGGGGSGGGGSGGGGSEVQLVESGGGLVQPGGSLRLSCAASGIDFNSNYYMCWVRQAPGKGLEWIGCIYVGSHVNTYYANWAKGRFTISRDNSKNTVYLQMNSLRAEDTAVYYCATSGSSVLYFKFWGQGTLVTVSSGGGGSGGGGSDIQMTQSPSSLSASVGDRVTITCQSSQSVFSNNYLAWFQQKPGQSPKRLIYSASTLASGVPSRFSGSGSGTDFTLTISSLQPEDFATYYCLGSYACSSADCYVFGCGTKVTVLGSGGGGSGGGGSDVVMTQSPSSLSASVGDRVTITCQASQIISSRSAWYQQKPGQPPKLLIYQASKLASGVPSRFSGSGSGTDFTLTISSLQPEDFATYYCQCTYIDSNFGAFGGGTKLTVLG
chain 2: DIQMTQSPSSLSASVGDRVTITCQASENIYSFLAWYQQKPGKAPKLLIYSASKLAAGVPSRFSGSGSGTDFTLTISSLQPEDFATYYCQQTNRYSNPDIYNVFGTGTKVTVLGGGGGSGGGGSGGGGSGGGGSEVQLVESGGGLVQPGGSLRLSCAASGIDFNSNYYMCWVRQAPGKGLEWIGCIYVGSHVNTYYANWAKGRFTISRDNSKNTVYLQMNSLRAEDTAVYYCATSGSSVLYFKFWGQGTLVTVSSGGGGSGGGGSEVQLVESGGGLVQPGGSLRLSCAASGFSFSSSYWICWVRQAPGKGLEWVGCVFTGDGTTYYASWAKGRFTISRDNSKNTVYLQMNSLRAEDTATYFCARPVSVYYYGMDLWGQGTLVTVSSSGGGGSGGGGSEVQLVESGGGLVQPGGSLRLSCAASGFSLSSYDMSWVRQAPGKCLAWIGASYASGPTYYASWAKGRFTISRDNSKNTVYLQMNSLRAEDTATYFCARGGWTGTSHSNIWGQGTLVTVSS
notes: Hetero-dimeric MATCH, anti-parallel; diS in anti-CD3 domain, 11 aa GS-linker, alternative anti-HSA
As for B4, the dissociation constant (Kd) amounted to 0.0378 nM with human IL-23 receptor ECD, 0.338 nM with human serum albumin, 1.08 nM with cyno CD3 and 7.58 nM in test [2].

B5: PRO737 (other)
chain 1: DIQMTQSPSSLSASVGDRVTITCQASENIYSFLAWYQQKPGKAPKLLIYSASKLAAGVPSRFSGSGSGTDFTLTISSLQPEDFATYYCQQTNRYSNPDIYNVFGTGTKVTVLGGGGGSGGGGSGGGGSGGGGSEVQLVESGGGLVQPGGSLRLSCAASGIDFNSNYYMCWVRQAPGKGLEWIGCIYVGSHVNTYYANWAKGRFTISRDNSKNTVYLQMNSLRAEDTAVYYCATSGSSVLYFKFWGQGTLVTVSSGGGGSGGGGSDIQMTQSPSSLSASVGDRVTITCQSSESVYNNKRLSWYQQKPGKAPKLLIYTASSLASGVPSRFSGSGSGTDFTLTISSLQPEDFATYYCQGEFTCSNADCFTFGCGTKVTVLGGGGGSGGGGSGGGGSDIQMTQSPSSLSASVGDRVTITCQSSESVYSNNQLSWYQQKPGQPPKLLIYDASDLASGVPSRFSGSGSGTDFTLTISSLQPEDFATYYCAGGFSSSSDTAFGGGTKLTVLG
chain 2: DIQMTQSPSSLSASVGDRVTITCQASENIYSFLAWYQQKPGKAPKLLIYSASKLAAGVPSRFSGSGSGTDFTLTISSLQPEDFATYYCQQTNRYSNPDIYNVFGTGTKVTVLGGGGGSGGGGSGGGGSGGGGSEVQLVESGGGLVQPGGSLRLSCAASGIDFNSNYYMCWVRQAPGKGLEWIGCIYVGSHVNTYYANWAKGRFTISRDNSKNTVYLQMNSLRAEDTAVYYCATSGSSVLYFKFWGQGTLVTVSSGGGGSGGGGSEVQLVESGGGLVQPGGSLRLSCAASGFPLSSYAMIWVRQAPGKCLEWIGMILRAGNIYYASWVKGRFTISRDNSKNTVYLQMNSLRAEDTAVYYCARRHYNREGYPIGIGDLWGQGTLVTVSSGGGGSGGGGSGGGGSEVQLVESGGGLVQPGGSLRLSCAASGFSLSSNAMGWVRQAPGKGLEYIGIISVGGFTYYASWAKGRFTISRDNSKNTVYLQMNSLRAEDTATYFCARDRHGGDSSGAFYLWGQGTLVTVSS
notes: Hetero-dimeric MATCH, parallel; diS in anti-CD3 domain, 15 aa GS-linker, alternative anti-CD3
For B5, the Kd was 0.0334 nM in the test with human IL-23 receptor ECD, 0.493 nM with human serum albumin, 56.7 nM in the test with cyno CD3 and 24 nM in test [2].
